How the values were obtained:
[1] = molecular target: T1, β-phosphoglucomutase (βPGM) (Lactococcus lactis, UniProt P71447, P146A); assay: NMR: phosphorylation of the purified enzyme (B^P formed) and turnover of F16BP; format: biochemical
T1 construct: gene pgmB

[2] = molecular target: T2, β-phosphoglucomutase (βPGM) (Lactococcus lactis, UniProt P71447); assay: real-time NMR (A:F16BP complex observed); phosphorylating agent in coupled assay; format: binding
T2 construct: gene pgmB

[3] = test system: O=P(O)(O)OC[C@H]1O[C@@H](OP(=O)(O)O)[C@H](O)[C@@H](O)[C@@H]1O; assay: purified protein; details: Mg2+ active site
[4] = test system: O=P(O)(O)O[C@@H]1O[C@H](CO)[C@@H](O)[C@H](O)[C@H]1O; assay: purified protein; details: Mg2+ active site
[5] = molecular target: T2, β-phosphoglucomutase (βPGM); assay: X-ray crystal structure at […] Å; NMR titration (1H15N-TROSY); format: binding

Compound | NMR: phosphorylation of the purified enzyme (B^P formed) and turnover of F16BP [1] | real-time NMR (A:F16BP complex observed); phosphorylating agent in coupled assay [2] | Km [3] [µM] | Km [4] [µM] | X-ray crystal structure at 2.1 Å; NMR titration (1H15N-TROSY) [5]
O=P(O)(O)OC[C@H]1OC(O)(COP(=O)(O)O)[C@@H](O)[C@@H]1O (mixture of isomers) [F16BP, fructose 1,6-bisphosphate] | On addition of F16BP to βPGMP146A, the two dominant species observed are conformer B and B^P | A minor population of the A:F16BP complex is also present |  |  | 
β-phosphoglucomutase (βPGM) (Lactococcus lactis subsp. lactis Il1403) |  |  | 8.5 ± 0.3 | 91 ± 4 | 
O=C(O)CC(O)(CC(=O)O)C(=O)O [citrate] |  |  |  |  | Citrate is coordinated in the active site by residues T16, H20, V47–R49 and A115–K117 and mimics substrate binding
β-phosphoglucomutase (βPGM) (Lactococcus lactis subsp. lactis Il1403; P146A) |  |  | 175 ± 3 | 157 ± 3 | 

Reference: paper PMC7608592, “Allomorphy as a mechanism of post-translational control of enzyme activity” (Nature Communications, 2020)
